# Data: PMC4344358, “Radiation damage to nucleoprotein complexes in macromolecular crystallography” (Journal of Synchrotron Radiation, 2015)
# B1: C.Esp1396I (natural protein)
# chain: MESFLLSKVSFVIKKIRLEKGMTQEDLAYKSNLDRTYISGIERNSRNLTIKSLELIMKGLEVSDVVFFEMLIKEILKHD
# notes: C.Esp1396I, bacterial helix-turn-helix controller protein of a restriction-modification system; native protein; protein chains A-D of the deposited entries; also called C-protein; controller C-protein; source: expression and purification as described earlier (McGeehan et al., 2008); pure protein
# Biological target: the molecule itself
# Experiment: crystal structure; C.Esp1396I (0.7 mg/ml) mixed with 35 bp dsDNA at 4:1 molar ratio; sitting-drop vapour diffusion at 293 K, 50 mM MES pH 7.5, 25% MPD, 40 mM MgCl2; data at 100 K, space group P6(5), 2.8 A; eight datasets of increasing dose from one crystal
protein,measurement,value
B1,stoichiometry N,4
